Results on 2 molecules are retold here after patent US20190256846A1 (AGENCY FOR SCIENCE TECHNOLOGY AND RESEARCH, published 2019).

Test [1] deals with ErbB4 on MCF-7 cells (endogenous) (UniProt Q15303). Put plainly: cell-based or functional assay.
Test [2] has as its target T1, ErbB4 mutant lacking the C-terminal PDZ binding motif (ErbB4 APBM) (UniProt Q15303 26-1308, limits assumed).
T1 construct: The mutation is a triple alanine substitution of the last three residues, not a deletion; Present in HEK293 cell lysate; also called mutant with a disrupted PBM
Nature of the test: GST pull-down from lysates of overexpressing cells, Western blot with anti-ErbB4. As to the method:
ErbB4 and mutant was transfected into HEK293 cells using JetPrimePolyPlus transfection kit (PolyPlus Transfections) according to manufacturer's instructions. […] GST and GST ZO-1PDZ1-3 domain fusion proteins were generated, purified, and bound to Glutathione Sepharose-4B (GE Healthcare Life Sciences) using standard protocols. Bound proteins were quantified by SDS-PAGE by using known amounts of BSA as standards. 18 μl of GST beads were incubated with 1 μg of GST fusion proteins. Unbound proteins were removed by washing with ice cold PBS. 300 μg of the transfected cells were then added and incubated at 4° C. for 2 hr followed by washing 4 times with ice cold lysis buffer. The bound fractions were eluted with 4×SDS-PAGE sample buffer, separated by SDS PAGE, immunoblotted onto PVDF membranes and probed with Rabbit anti-ErbB4 antibodies.
(A western blot detects proteins with antibodies after separation by electrophoresis.)

Sequence of ErbB4 on MCF-7 cells (endogenous) (Q15303 26-1308 limits assumed): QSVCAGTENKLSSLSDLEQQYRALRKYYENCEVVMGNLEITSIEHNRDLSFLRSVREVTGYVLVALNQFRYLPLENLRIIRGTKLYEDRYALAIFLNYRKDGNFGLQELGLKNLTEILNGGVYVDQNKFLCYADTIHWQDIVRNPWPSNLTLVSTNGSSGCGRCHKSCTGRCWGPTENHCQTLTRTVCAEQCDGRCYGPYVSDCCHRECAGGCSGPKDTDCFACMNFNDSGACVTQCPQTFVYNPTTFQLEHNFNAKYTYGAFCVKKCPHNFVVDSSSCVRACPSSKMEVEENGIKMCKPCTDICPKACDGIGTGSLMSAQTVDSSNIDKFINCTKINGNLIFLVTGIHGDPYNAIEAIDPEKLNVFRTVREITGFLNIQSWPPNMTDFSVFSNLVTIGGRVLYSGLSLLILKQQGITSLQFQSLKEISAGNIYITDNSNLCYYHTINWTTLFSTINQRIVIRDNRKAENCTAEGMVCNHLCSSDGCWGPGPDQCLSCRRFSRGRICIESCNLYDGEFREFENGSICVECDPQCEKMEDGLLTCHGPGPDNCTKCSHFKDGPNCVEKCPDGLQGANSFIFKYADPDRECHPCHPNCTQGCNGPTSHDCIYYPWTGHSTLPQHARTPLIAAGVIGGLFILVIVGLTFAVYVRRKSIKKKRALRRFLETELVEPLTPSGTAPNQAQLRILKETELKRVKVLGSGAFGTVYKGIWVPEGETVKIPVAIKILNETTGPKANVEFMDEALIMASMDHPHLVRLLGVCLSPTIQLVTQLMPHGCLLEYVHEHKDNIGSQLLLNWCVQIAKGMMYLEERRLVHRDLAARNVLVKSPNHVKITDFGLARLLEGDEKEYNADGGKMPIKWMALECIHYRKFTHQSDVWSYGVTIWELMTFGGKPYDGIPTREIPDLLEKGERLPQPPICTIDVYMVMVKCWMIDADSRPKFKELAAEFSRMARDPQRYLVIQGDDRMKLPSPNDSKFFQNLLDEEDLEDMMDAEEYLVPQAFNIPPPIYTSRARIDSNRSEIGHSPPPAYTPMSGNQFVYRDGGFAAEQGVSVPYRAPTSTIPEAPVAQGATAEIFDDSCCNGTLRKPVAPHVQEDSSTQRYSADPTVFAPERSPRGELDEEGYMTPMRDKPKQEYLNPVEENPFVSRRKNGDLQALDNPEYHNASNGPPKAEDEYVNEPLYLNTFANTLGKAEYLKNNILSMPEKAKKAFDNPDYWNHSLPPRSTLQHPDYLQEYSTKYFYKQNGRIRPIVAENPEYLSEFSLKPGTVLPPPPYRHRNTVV
T1 sequence (Q15303 other isoform, or with tags, fused parts or gaps mutant limits assumed): as the sequence (Q15303 26-1308 limits assumed) above, with T1281A, V1282A, V1283A counted along it

As for “human NRG-1 (Cell Signalling Technology, Cat. #5218) (from UniProt Q02297 177-241) (ligand)”, in test [1], the Erk activation (Erk phosphorylation, Western blot) in Tjp1 shRNA MCF-7 cells, 15 min stimulation stood at 2.5 ng/mL and the Erk activation (Erk phosphorylation, Western blot) in control shRNA MCF-7 cells, 15 min stimulation fell in the range of 50 to 100 ng/mL.

B1: GST fusion protein carrying the three PDZ domains of Tjp1 (GST-Tjp1 PDZ1-3) (other, human, UniProt Q07157 1-503, looked up)
chain: MSARAAAAKSTAMEETAIWEQHTVTLHRAPGFGFGIAISGGRDNPHFQSGETSIVISDVLKGGPAEGQLQENDRVAMVNGVSMDNVEHAFAVQQLRKSGKNAKITIRRKKKVQIPVSRPDPEPVSDNEEDSYDEEIHDPRSGRSGVVNRRSEKIWPRDRSASRERSLSPRSDRRSVASSQPAKPTKVTLVKSRKNEEYGLRLASHIFVKEISQDSLAARDGNIQEGDVVLKINGTVTENMSLTDAKTLIERSKGKLKMVVQRDERATLLNVPDLSDSIHSANASERDDISEIQSLASDHSGRSHDRPPRRSRSRSPDQRSEPSDHSRHSPQQPSNGSLRSRDEERISKPGAVSTPVKHADDHTPKTVEEVTVERNEKQTPSLPEPKPVYAQVGQPDVDLPVSPSDGVLPNSTHEDGILRPSMKLVKFRKGDSVGLRLAGGNDVGIFVAGVLEDSPAAKEGLEEGDQILRVNNVDFTNIIREEAVLFLLDLPKGEEVTILAQKK
notes: domain: PDZ 1-3 domains; also called GST ZO-1PDZ1-3 domain fusion protein; ZO-1 (Tjp1) PDZ domains; not shown: glutathione S-transferase (GST) tag encoded by the pGEX 4T-1 vector
Regarding B1, the binding result in test [2] is listed as “no binding”.
